B1: SeM58-K62D (natural protein, Synechococcus elongatus PCC 7942, UniProt Q03513 1-539, looked up)
chain: MPSPTTVPVATAGRLAEPYIDPAAQVHAIASIIGDVRIAAGVRVAAGVSIRADEGAPFQVGDESILQEGAVIHGLEYGRVLGDDQADYSVWIGQRVAITHKALIHGPAYLGDDCFVGFRSTVFNARVGAGSVIMMHALVQDVEIPPGRYVPSGAIITTQQQADRLPEVRPEDREFARHIIGSPPVIVRSTPAATADFHSTPTPSPLRPSSSEATTVSAYNGQGRLSSEVITQVRSLLNQGYRIGTEHADKRRFRTSSWQPCAPIQSTNERQVLSELENCLSEHEGEYVRLLGIDTNTRSRVFEALIQRPDGSVPESLGSQPVAVASGGGRQSSYASVSGNLSAEVVNKVRNLLAQGYRIGTEHADKRRFRTSSWQSCAPIQSSNERQVLAELENCLSEHEGEYVRLLGIDTASRSRVFEALIQDPQGPVGSAKAAAAPVSSATPSSHSYTSNGSSSSDVAGQVRGLLAQGYRISAEVADKRRFQTSSWQSLPALSGQSEATVLPALESILQEHKGKYVRLIGIDPAARRRVAELLIQKP
notes: CcmM (M58), Synechococcus elongatus PCC 7942, point mutant in the γCAL domain; source: E. coli BL21 (DE3), purified as wild-type M58; not shown: His6-ubiquitin, N-terminal, cleaved
B2: SeM58-D294K (natural protein, Synechococcus elongatus PCC 7942, UniProt Q03513 1-539, looked up)
chain: MPSPTTVPVATAGRLAEPYIDPAAQVHAIASIIGDVRIAAGVRVAAGVSIRADEGAPFQVGKESILQEGAVIHGLEYGRVLGDDQADYSVWIGQRVAITHKALIHGPAYLGDDCFVGFRSTVFNARVGAGSVIMMHALVQDVEIPPGRYVPSGAIITTQQQADRLPEVRPEDREFARHIIGSPPVIVRSTPAATADFHSTPTPSPLRPSSSEATTVSAYNGQGRLSSEVITQVRSLLNQGYRIGTEHADKRRFRTSSWQPCAPIQSTNERQVLSELENCLSEHEGEYVRLLGIKTNTRSRVFEALIQRPDGSVPESLGSQPVAVASGGGRQSSYASVSGNLSAEVVNKVRNLLAQGYRIGTEHADKRRFRTSSWQSCAPIQSSNERQVLAELENCLSEHEGEYVRLLGIDTASRSRVFEALIQDPQGPVGSAKAAAAPVSSATPSSHSYTSNGSSSSDVAGQVRGLLAQGYRISAEVADKRRFQTSSWQSLPALSGQSEATVLPALESILQEHKGKYVRLIGIDPAARRRVAELLIQKP
notes: CcmM (M58), Synechococcus elongatus PCC 7942, point mutant in SSUL1; source: E. coli BL21 (DE3), purified as wild-type M58; not shown: His6-ubiquitin, N-terminal, cleaved
B3: SeM58-E76K (natural protein, Synechococcus elongatus PCC 7942, UniProt Q03513 1-539, looked up)
chain: MPSPTTVPVATAGRLAEPYIDPAAQVHAIASIIGDVRIAAGVRVAAGVSIRADEGAPFQVGKESILQEGAVIHGLKYGRVLGDDQADYSVWIGQRVAITHKALIHGPAYLGDDCFVGFRSTVFNARVGAGSVIMMHALVQDVEIPPGRYVPSGAIITTQQQADRLPEVRPEDREFARHIIGSPPVIVRSTPAATADFHSTPTPSPLRPSSSEATTVSAYNGQGRLSSEVITQVRSLLNQGYRIGTEHADKRRFRTSSWQPCAPIQSTNERQVLSELENCLSEHEGEYVRLLGIDTNTRSRVFEALIQRPDGSVPESLGSQPVAVASGGGRQSSYASVSGNLSAEVVNKVRNLLAQGYRIGTEHADKRRFRTSSWQSCAPIQSSNERQVLAELENCLSEHEGEYVRLLGIDTASRSRVFEALIQDPQGPVGSAKAAAAPVSSATPSSHSYTSNGSSSSDVAGQVRGLLAQGYRISAEVADKRRFQTSSWQSLPALSGQSEATVLPALESILQEHKGKYVRLIGIDPAARRRVAELLIQKP
notes: as for B1
B4: SeM58-E246K (natural protein, Synechococcus elongatus PCC 7942, UniProt Q03513 1-539, looked up)
chain: MPSPTTVPVATAGRLAEPYIDPAAQVHAIASIIGDVRIAAGVRVAAGVSIRADEGAPFQVGKESILQEGAVIHGLEYGRVLGDDQADYSVWIGQRVAITHKALIHGPAYLGDDCFVGFRSTVFNARVGAGSVIMMHALVQDVEIPPGRYVPSGAIITTQQQADRLPEVRPEDREFARHIIGSPPVIVRSTPAATADFHSTPTPSPLRPSSSEATTVSAYNGQGRLSSEVITQVRSLLNQGYRIGTKHADKRRFRTSSWQPCAPIQSTNERQVLSELENCLSEHEGEYVRLLGIDTNTRSRVFEALIQRPDGSVPESLGSQPVAVASGGGRQSSYASVSGNLSAEVVNKVRNLLAQGYRIGTEHADKRRFRTSSWQSCAPIQSSNERQVLAELENCLSEHEGEYVRLLGIDTASRSRVFEALIQDPQGPVGSAKAAAAPVSSATPSSHSYTSNGSSSSDVAGQVRGLLAQGYRISAEVADKRRFQTSSWQSLPALSGQSEATVLPALESILQEHKGKYVRLIGIDPAARRRVAELLIQKP
notes: as for B2
B5: SeM58-R79D (natural protein, Synechococcus elongatus PCC 7942, UniProt Q03513 1-539, looked up)
chain: MPSPTTVPVATAGRLAEPYIDPAAQVHAIASIIGDVRIAAGVRVAAGVSIRADEGAPFQVGKESILQEGAVIHGLEYGDVLGDDQADYSVWIGQRVAITHKALIHGPAYLGDDCFVGFRSTVFNARVGAGSVIMMHALVQDVEIPPGRYVPSGAIITTQQQADRLPEVRPEDREFARHIIGSPPVIVRSTPAATADFHSTPTPSPLRPSSSEATTVSAYNGQGRLSSEVITQVRSLLNQGYRIGTEHADKRRFRTSSWQPCAPIQSTNERQVLSELENCLSEHEGEYVRLLGIDTNTRSRVFEALIQRPDGSVPESLGSQPVAVASGGGRQSSYASVSGNLSAEVVNKVRNLLAQGYRIGTEHADKRRFRTSSWQSCAPIQSSNERQVLAELENCLSEHEGEYVRLLGIDTASRSRVFEALIQDPQGPVGSAKAAAAPVSSATPSSHSYTSNGSSSSDVAGQVRGLLAQGYRISAEVADKRRFQTSSWQSLPALSGQSEATVLPALESILQEHKGKYVRLIGIDPAARRRVAELLIQKP
notes: as for B1
B6: SeM58-R95D (natural protein, Synechococcus elongatus PCC 7942, UniProt Q03513 1-539, looked up)
chain: MPSPTTVPVATAGRLAEPYIDPAAQVHAIASIIGDVRIAAGVRVAAGVSIRADEGAPFQVGKESILQEGAVIHGLEYGRVLGDDQADYSVWIGQDVAITHKALIHGPAYLGDDCFVGFRSTVFNARVGAGSVIMMHALVQDVEIPPGRYVPSGAIITTQQQADRLPEVRPEDREFARHIIGSPPVIVRSTPAATADFHSTPTPSPLRPSSSEATTVSAYNGQGRLSSEVITQVRSLLNQGYRIGTEHADKRRFRTSSWQPCAPIQSTNERQVLSELENCLSEHEGEYVRLLGIDTNTRSRVFEALIQRPDGSVPESLGSQPVAVASGGGRQSSYASVSGNLSAEVVNKVRNLLAQGYRIGTEHADKRRFRTSSWQSCAPIQSSNERQVLAELENCLSEHEGEYVRLLGIDTASRSRVFEALIQDPQGPVGSAKAAAAPVSSATPSSHSYTSNGSSSSDVAGQVRGLLAQGYRISAEVADKRRFQTSSWQSLPALSGQSEATVLPALESILQEHKGKYVRLIGIDPAARRRVAELLIQKP
notes: as for B1
B7: SeM58-D112K (natural protein, Synechococcus elongatus PCC 7942, UniProt Q03513 1-539, looked up)
chain: MPSPTTVPVATAGRLAEPYIDPAAQVHAIASIIGDVRIAAGVRVAAGVSIRADEGAPFQVGKESILQEGAVIHGLEYGRVLGDDQADYSVWIGQRVAITHKALIHGPAYLGKDCFVGFRSTVFNARVGAGSVIMMHALVQDVEIPPGRYVPSGAIITTQQQADRLPEVRPEDREFARHIIGSPPVIVRSTPAATADFHSTPTPSPLRPSSSEATTVSAYNGQGRLSSEVITQVRSLLNQGYRIGTEHADKRRFRTSSWQPCAPIQSTNERQVLSELENCLSEHEGEYVRLLGIDTNTRSRVFEALIQRPDGSVPESLGSQPVAVASGGGRQSSYASVSGNLSAEVVNKVRNLLAQGYRIGTEHADKRRFRTSSWQSCAPIQSSNERQVLAELENCLSEHEGEYVRLLGIDTASRSRVFEALIQDPQGPVGSAKAAAAPVSSATPSSHSYTSNGSSSSDVAGQVRGLLAQGYRISAEVADKRRFQTSSWQSLPALSGQSEATVLPALESILQEHKGKYVRLIGIDPAARRRVAELLIQKP
notes: as for B1
B8: SeM58-D249K (natural protein, Synechococcus elongatus PCC 7942, UniProt Q03513 1-539, looked up)
chain: MPSPTTVPVATAGRLAEPYIDPAAQVHAIASIIGDVRIAAGVRVAAGVSIRADEGAPFQVGKESILQEGAVIHGLEYGRVLGDDQADYSVWIGQRVAITHKALIHGPAYLGDDCFVGFRSTVFNARVGAGSVIMMHALVQDVEIPPGRYVPSGAIITTQQQADRLPEVRPEDREFARHIIGSPPVIVRSTPAATADFHSTPTPSPLRPSSSEATTVSAYNGQGRLSSEVITQVRSLLNQGYRIGTEHAKKRRFRTSSWQPCAPIQSTNERQVLSELENCLSEHEGEYVRLLGIDTNTRSRVFEALIQRPDGSVPESLGSQPVAVASGGGRQSSYASVSGNLSAEVVNKVRNLLAQGYRIGTEHADKRRFRTSSWQSCAPIQSSNERQVLAELENCLSEHEGEYVRLLGIDTASRSRVFEALIQDPQGPVGSAKAAAAPVSSATPSSHSYTSNGSSSSDVAGQVRGLLAQGYRISAEVADKRRFQTSSWQSLPALSGQSEATVLPALESILQEHKGKYVRLIGIDPAARRRVAELLIQKP
notes: as for B2
B9: SeM58-R126D (natural protein, Synechococcus elongatus PCC 7942, UniProt Q03513 1-539, looked up)
chain: MPSPTTVPVATAGRLAEPYIDPAAQVHAIASIIGDVRIAAGVRVAAGVSIRADEGAPFQVGKESILQEGAVIHGLEYGRVLGDDQADYSVWIGQRVAITHKALIHGPAYLGDDCFVGFRSTVFNADVGAGSVIMMHALVQDVEIPPGRYVPSGAIITTQQQADRLPEVRPEDREFARHIIGSPPVIVRSTPAATADFHSTPTPSPLRPSSSEATTVSAYNGQGRLSSEVITQVRSLLNQGYRIGTEHADKRRFRTSSWQPCAPIQSTNERQVLSELENCLSEHEGEYVRLLGIDTNTRSRVFEALIQRPDGSVPESLGSQPVAVASGGGRQSSYASVSGNLSAEVVNKVRNLLAQGYRIGTEHADKRRFRTSSWQSCAPIQSSNERQVLAELENCLSEHEGEYVRLLGIDTASRSRVFEALIQDPQGPVGSAKAAAAPVSSATPSSHSYTSNGSSSSDVAGQVRGLLAQGYRISAEVADKRRFQTSSWQSLPALSGQSEATVLPALESILQEHKGKYVRLIGIDPAARRRVAELLIQKP
notes: as for B1
B10: SeM58-E286K (natural protein, Synechococcus elongatus PCC 7942, UniProt Q03513 1-539, looked up)
chain: MPSPTTVPVATAGRLAEPYIDPAAQVHAIASIIGDVRIAAGVRVAAGVSIRADEGAPFQVGKESILQEGAVIHGLEYGRVLGDDQADYSVWIGQRVAITHKALIHGPAYLGDDCFVGFRSTVFNARVGAGSVIMMHALVQDVEIPPGRYVPSGAIITTQQQADRLPEVRPEDREFARHIIGSPPVIVRSTPAATADFHSTPTPSPLRPSSSEATTVSAYNGQGRLSSEVITQVRSLLNQGYRIGTEHADKRRFRTSSWQPCAPIQSTNERQVLSELENCLSEHEGKYVRLLGIDTNTRSRVFEALIQRPDGSVPESLGSQPVAVASGGGRQSSYASVSGNLSAEVVNKVRNLLAQGYRIGTEHADKRRFRTSSWQSCAPIQSSNERQVLAELENCLSEHEGEYVRLLGIDTASRSRVFEALIQDPQGPVGSAKAAAAPVSSATPSSHSYTSNGSSSSDVAGQVRGLLAQGYRISAEVADKRRFQTSSWQSLPALSGQSEATVLPALESILQEHKGKYVRLIGIDPAARRRVAELLIQKP
notes: as for B2

This is an account of results in publication PMC8580825, “Scaffolding protein CcmM directs multiprotein phase separation in β-carboxysome biogenesis” (Nature Structural & Molecular Biology, 2021).

This data set deals with the molecule itself. The experiment in a line: SEC-MALS; 2 mg/ml protein; 50 mM Tris-HCl pH 8.0/150 mM KCl or 50 mM Tris-HCl pH 8.0/500 mM KCl/5 mM DTT; 25 °C; oligomeric state in solution. On the technique in general: Size exclusion chromatography separates by hydrodynamic size, large species first.
What is called stoichiometry N is the number of molecules, sites or subunits per partner or assembly. B1: the “stoichiometry N” value was 3.
Consider B2, for which the “stoichiometry N” value was 3.
With B3, the “stoichiometry N” value turned out to be 3.
As to B4, the “stoichiometry N” value turned out to be 3.
For the protein B5, the “stoichiometry N” value was 3.
For the protein B6, the “stoichiometry N” value amounted to 3.
Regarding B7, the “stoichiometry N” value was found to be 3.
For the protein B8, the “stoichiometry N” value turned out to be 3.
For the protein B9, the “stoichiometry N” value turned out to be 3.
In the case of B10 it was 3.
